# Data as given in patent US20020147146A1.
# Non-standard residues stand in square brackets, D forms with d. No end group written: not given here. pS = N[C@@H](COP(=O)(O)O)C(=O)O
# T1: 9CREB ILSRRPSYR (non-phosphorylated peptide)
# T1 sequence: ILSRRPSYR
# T2: peptide #1 KRREILSRRPS(p)YR (derived from CREB protein)
# T2 sequence: KRREILSRRPSYR
# T3: peptide #2 KRREILSRRPSYR (non-phosphorylated CREB peptide)
# T3 sequence: KRREILSRRPSYR
# T4: peptide #3 ILSRRPS(p)YR (p9CREB)
# T4 sequence: ILSRRPSYR
# T5: peptide #4 ILSRRPEYR (9ECREB)
# T5 sequence: ILSRRPEYR
# Tests used:
# [1] = test system: T1, 9CREB ILSRRPSYR (non-phosphorylated peptide)
# [2] = test system: T2, peptide #1 KRREILSRRPS(p)YR (derived from CREB protein)
# [3] = test system: T3, peptide #2 KRREILSRRPSYR (non-phosphorylated CREB peptide)
# [4] = test system: T4, peptide #3 ILSRRPS(p)YR (p9CREB)
# [5] = test system: T5, peptide #4 ILSRRPEYR (9ECREB)
# [6] = biological target: purified recombinant rabbit GSK-3 (glycogen synthase kinase-3) (rabbit); test: cell-based or functional assay
# [7] = biological target: purified recombinant rabbit GSK-3 (glycogen synthase kinase-3) (rabbit); test: in vitro kinase assay of purified GSK-3 with PGS-1 substrate and 32P-ATP, Lineweaver-Burk analysis (competitive inhibition)
molecule,measurement,setting,value
purified recombinant rabbit GSK-3 (glycogen synthase kinase-3),time course of peptide phosphorylation by GSK-3,[1],9CREB and 9ECREB completely failed to be phosphorylated by GSK-3
same,kinetic property (phosphorylation by GSK-3),[2],A substrate
same,kinetic property (phosphorylation by GSK-3),[3],Not a substrate
same,kinetic property (phosphorylation by GSK-3),[4],A substrate
same,time course of peptide phosphorylation by GSK-3,[4],"only the phosphorylated peptide, p9CREB, was a substrate for GSK-3"
same,time course of peptide phosphorylation by GSK-3,[5],9CREB and 9ECREB completely failed to be phosphorylated by GSK-3
KRREILARRP[pS]YR [peptide #5 …(p)YR],"IC50, inhibition of GSK-3 (in vitro kinase assay)",[6],330 µM
same,"IC50, inhibition of GSK-3 phosphorylation of PGS-1 substrate (32P incorporation)",[6],150 µM
KEEPPAPPQ[pS]P [peptide #7 …(p)P (patterned after HSF-1 protein)],"IC50, inhibition of GSK-3 (in vitro kinase assay)",[6],250 µM
KEAPPAPPQ[pS]P [peptide #8 …(p)P],"IC50, inhibition of GSK-3 (in vitro kinase assay)",[6],190 µM
same,Ki,[7],76 µM
